1 substance from article PMC5862951 can be followed below.

Broadly, the stoichiometry N is a count of units in the complex or per binding partner.

The test addresses His6-tagged rat SLFN13 N′-domain, residues 14–353 (crystallised rSLFN13_(14–353)) (rat) (UniProt Q5U311). Briefly: right-angle light scattering (RALS) of eluted protein; purified protein in solution; elution with RALS detection; conditions not shown (Supplementary Fig. 2a).

As to “His6-tagged rat SLFN13 N′-domain, residues 14–353 (crystallised rSLFN13_(14–353)) (from UniProt Q5U311 14-353) (domain or fragment)”, the stoichiometry N amounted to 2.
